The source of these data is the supplement of paper PMC7877785.

This series in a line: self-splicing fitness, log relative to wild type (ln ratio); higher = more splicing; Tetrahymena group I intron in knt gene, E. coli kanamycin selection, DiMSum; sequences stand for … in CUCUCU…GGAGGGAAAAGUUAUCAGGCAUGCACCUGGUAGCUAGUCUUUAAACCAAUAGAUUGCAUCGGUUUAAAAGGCAAGACCGUCAAAUUGCGGGAAAGGGGUCAACAGCCGUUCAGUACCAAGUCUCAGGGGAAACUUUGAGAUGGCCUUGCAAAGGGUAUGGUAAUAAGCUGACGGACAUGGUCCUAACCACGCAGCCAAGUCCUAAGUCAACAGAUCUUCUGUUGAUAUGGAUGCAGUUCACAGACUAAAUGUCGGUCGGGGAAGAUGUAUUCUUCUCAUAAGAUAUAGUCGGACCUCUCCUUAAUGGGAGCUAGCGGAUGAAGUGAUGCAACACUGGAGCCGCUGGGAACUAAUUUGUAUGCGAAAGUAUAUUGAUUAGUUUUGGAGUACUCGUGGUCG
An outline of the steps:
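Library with all eight P1ex-region intron nucleotides randomised, intron inside the knt kanamycin-resistance gene on pET-22b(+), in E. coli BL21(DE3). Cells grew overnight at 37°C or 30°C on LB agar with or without 25 μg/mL kanamycin (plus 100 μg/mL carbenicillin, 50 μM IPTG, 0.2% rhamnose), in six replicate transformations. Pooled colonies were amplicon-sequenced on Illumina HiSeq 2500. DiMSum fitness is the error-weighted combination of wild-type-normalised replicate fold changes, kanamycin versus none.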

± gives the uncertainty stated by the source.

UGUAAGCAAUAUUACGCAGG: the “self-splicing fitness (ln)” value reads like this: (30 °C) -3.22 ± 0.16; (37 °C) -3.06 ± 0.24.
The corresponding values for GCUUAGCAAUAUUACGGCAC are -2.62 ± 0.44 and 0.326 ± 0.28.
On the same counts, the results for GGAGAGCAAUAUUACGGUGG are -3.5 ± 0.28 and -2.25 ± 0.23.
On the same counts, the results for CGGCAGCAAUAUUACGGCGA are -3.18 ± 0.16 and -2.72 ± 0.18.
Turning to CGGAAGCAAUAUUACGAUAC, the “self-splicing fitness (ln)” value runs as follows: (30 °C) -2.26 ± 0.18; (37 °C) -2.22 ± 0.21.
The corresponding values for GACUAGCAAUAUUACGCGCA are -0.593 ± 0.16 and -0.286 ± 0.18.
On the same counts, the results for CUCUAGCAAUAUUACGGGAU are -2.37 ± 0.11 and -3.45 ± 0.16.
As for CAUAAGCAAUAUUACGCGUC, the “self-splicing fitness (ln)” value was -3.98 ± 0.26 (30 °C) and -2.15 ± 0.2 (37 °C).
The corresponding values for GAUCAGCAAUAUUACGGUAU are -0.247 ± 0.068 and -0.46 ± 0.078.
On the same counts, the results for ACUAAGCAAUAUUACGGGAC are -2.94 ± 0.14 and -0.635 ± 0.12.
On the same counts, the results for GGUUAGCAAUAUUACGUUCU are -0.833 ± 0.042 and -0.236 ± 0.052.
Take AAUGAGCAAUAUUACGACAA: the “self-splicing fitness (ln)” value runs as follows: (30 °C) -3.01 ± 0.27; (37 °C) -1.93 ± 0.25.
The corresponding values for GCUAAGCAAUAUUACGGGGG are -3.45 ± 0.28 and -1.89 ± 0.22.
Consider GACGAGCAAUAUUACGGCGU, for which the “self-splicing fitness (ln)” value was -3.7 ± 0.32 (30 °C) and -1.9 ± 0.26 (37 °C).
The corresponding values for CCCUAGCAAUAUUACGGGGC are -3.47 ± 0.15 and -2.15 ± 0.22.
The corresponding values for GACGAGCAAUAUUACGAAGG are -3.03 ± 0.19 and -2.52 ± 0.33.
On the same counts, the results for CCGCAGCAAUAUUACGCAAC are -3.22 ± 0.19 and -3.07 ± 0.32.
On to CGAUAGCAAUAUUACGCAAA, for which the “self-splicing fitness (ln)” value is, setting by setting: (30 °C) -2.98 ± 0.29; (37 °C) -1.92 ± 0.15.
The corresponding values for CCUCAGCAAUAUUACGCAUA are -2.47 ± 0.17 and -2.19 ± 0.17.
Take CUCCAGCAAUAUUACGGUCC: the “self-splicing fitness (ln)” value reads like this: (30 °C) -3.11 ± 0.17; (37 °C) -2.83 ± 0.38.
The corresponding values for CAGAAGCAAUAUUACGACGC are -3 ± 0.14 and -1.28 ± 0.12.
UUCUAGCAAUAUUACGGGCC: the “self-splicing fitness (ln)” value (37 °C) was -2.38 ± 0.45.
Consider GCGUAGCAAUAUUACGACUG, for which the “self-splicing fitness (ln)” value reads like this: (30 °C) -1.54 ± 0.17; (37 °C) -0.415 ± 0.17.
On the same counts, the results for UUGGAGCAAUAUUACGGCCG are -1.89 ± 0.3 and -0.616 ± 0.29.
On the same counts, the results for ACGAAGCAAUAUUACGUGCG are -1.35 ± 0.074 and -1.36 ± 0.089.
As to CAUUAGCAAUAUUACGGGAA, where the note is “37 °C”, the “self-splicing fitness (ln)” value is -2.59 ± 0.41.
Turning to ACGGAGCAAUAUUACGGCCA, the “self-splicing fitness (ln)” value runs as follows: (30 °C) -1.69 ± 0.25; (37 °C) -2.11 ± 0.23.
For CAUUAGCAAUAUUACGCUGC, the “self-splicing fitness (ln)” value is, setting by setting: (30 °C) -3.92 ± 0.28; (37 °C) -2.43 ± 0.24.
As to UCCUAGCAAUAUUACGGUCA, the “self-splicing fitness (ln)” value (30 °C) is -0.978 ± 0.079 and the “self-splicing fitness (ln)” value (37 °C) is -0.106 ± 0.089.
With AAAAAGCAAUAUUACGCCGC, the “self-splicing fitness (ln)” value runs as follows: (30 °C) -2.19 ± 0.43; (37 °C) -2.01 ± 0.33.
Turning to CCUAAGCAAUAUUACGCAGU, the “self-splicing fitness (ln)” value (30 °C) is -3.23 ± 0.19 and the “self-splicing fitness (ln)” value (37 °C) was -1.76 ± 0.19.
UCGUAGCAAUAUUACGAGUC: the “self-splicing fitness (ln)” value (30 °C) is -3.23 ± 0.17 and the “self-splicing fitness (ln)” value (37 °C) is -2.47 ± 0.17.
On the same counts, the results for AGGGAGCAAUAUUACGGUCG are -2.2 ± 0.31 and -2.83 ± 0.48.
The corresponding values for AACUAGCAAUAUUACGAACG are -0.824 ± 0.083 and -0.339 ± 0.12.
